From patent publication CN114573698A (dated 2022)
Several values for one entry are separate records, joined by “and”; a condition that tells them apart may be missing. Equal entries are not always repeated.

B1: SPGA01-102 (antibody, V domains shown)
VH: QIQLVQSGPELKKPGETVKISCKASGYTFTNHGMNWLKQAPGKDLKWMGWINTYTGEPTYEDDFKGRFAFSLETSASTVYLQINNLKNEDTATYFCAREEIYGNYYYTMDYWGQGTSVTVSS
VL: DIQMTQTTSSLSASLGDRVTISCSASQGISKYLNWYQQKPDGTVKLLIYYTSILHSGVPSRFSGSGSGTDYSLTISNLEPEDIATYFCQQYSKLPPTFGGGTKLEIT
notes: Mouse monoclonal antibody from a hybridoma, purified on Protein G and detected with anti-mouse IgG; also called 鼠源抗人FcRn单克隆抗体
B2: SPGA01-ch102 (antibody, human IgG4 S228P, kappa)
heavy: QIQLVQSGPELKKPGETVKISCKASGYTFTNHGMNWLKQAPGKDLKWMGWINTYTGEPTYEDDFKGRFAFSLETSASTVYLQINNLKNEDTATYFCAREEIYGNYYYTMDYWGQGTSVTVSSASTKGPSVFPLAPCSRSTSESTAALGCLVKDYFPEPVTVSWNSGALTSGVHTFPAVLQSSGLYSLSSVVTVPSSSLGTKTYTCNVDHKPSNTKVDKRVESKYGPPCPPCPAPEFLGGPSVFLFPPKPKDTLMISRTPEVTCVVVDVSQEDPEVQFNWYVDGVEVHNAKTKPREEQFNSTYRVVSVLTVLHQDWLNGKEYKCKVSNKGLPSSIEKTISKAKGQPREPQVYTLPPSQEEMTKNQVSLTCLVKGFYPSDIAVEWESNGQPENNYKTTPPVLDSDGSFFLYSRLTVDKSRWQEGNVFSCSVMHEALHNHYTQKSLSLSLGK
light: DIQMTQTTSSLSASLGDRVTISCSASQGISKYLNWYQQKPDGTVKLLIYYTSILHSGVPSRFSGSGSGTDYSLTISNLEPEDIATYFCQQYSKLPPTFGGGTKLEITRTVAAPSVFIFPPSDEQLKSGTASVVCLLNNFYPREAKVQWKVDNALQSGNSQESVTEQDSKDSTYSLSSTLTLSKADYEKHKVYACEVTHQGLSSPVTKSFNRGEC
notes: also called 嵌合抗体SPGA01-ch102; SPGA1-ch102
B3: SPGA01-ch102mu (antibody, human IgG4 S228P, kappa)
heavy: QIQLVQSGPELKKPGETVKISCKASGYTFTNHGMNWLKQAPGKDLKWMGWINTYTGEPTYEDDFKGRFAFSLETSASTVYLQINNLKNEDTATYFCAREEIYGNYYYTMDYWGQGTSVTVSSASTKGPSVFPLAPCSRSTSESTAALGCLVKDYFPEPVTVSWNSGALTSGVHTFPAVLQSSGLYSLSSVVTVPSSSLGTKTYTCNVDHKPSNTKVDKRVESKYGPPCPPCPAPEFLGGPSVFLFPPKPKDTLYITREPEVTCVVVDVSQEDPEVQFNWYVDGVEVHNAKTKPREEQFNSTYRVVSVLTVLHQDWLNGKEYKCKVSNKGLPSSIEKTISKAKGQPREPQVYTLPPSQEEMTKNQVSLTCLVKGFYPSDIAVEWESNGQPENNYKTTPPVLDSDGSFFLYSRLTVDKSRWQEGNVFSCSVMHEALKFHYTQKSLSLSLGK
light: B2 light
notes: also called 突变的嵌合抗体SPGA01-ch102mu

Tests used:
α2-Fc = target: T1, α2-Fc (human); experiment: Western blot on domain-Fc fusion
T1 construct: no linker is mentioned; also called FcRn功能结构域α2与人Fc融合蛋白; FcRnα2
T1 chain: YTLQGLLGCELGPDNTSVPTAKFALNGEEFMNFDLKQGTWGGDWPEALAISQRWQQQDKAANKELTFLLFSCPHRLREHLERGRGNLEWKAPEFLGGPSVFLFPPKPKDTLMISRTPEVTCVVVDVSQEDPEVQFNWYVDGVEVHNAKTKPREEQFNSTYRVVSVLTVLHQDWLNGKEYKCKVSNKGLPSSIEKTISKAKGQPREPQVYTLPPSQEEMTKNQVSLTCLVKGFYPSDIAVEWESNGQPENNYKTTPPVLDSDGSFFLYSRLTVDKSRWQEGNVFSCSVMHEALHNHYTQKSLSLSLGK

[1] = target: T2, 人FcRn(β2M)-His蛋白 (human FcRn-ECD) (human, UniProt P61769 21-119); experiment: indirect ELISA, plate-bound human FcRn-ECD (method of Example 2.1)
T2 construct: Bought protein (Acro FCM-H5286); also called 人FcRn-ECD; FcRn-His
T2 sequence (chain, as listed by the source limits assumed, chain 1 of 2): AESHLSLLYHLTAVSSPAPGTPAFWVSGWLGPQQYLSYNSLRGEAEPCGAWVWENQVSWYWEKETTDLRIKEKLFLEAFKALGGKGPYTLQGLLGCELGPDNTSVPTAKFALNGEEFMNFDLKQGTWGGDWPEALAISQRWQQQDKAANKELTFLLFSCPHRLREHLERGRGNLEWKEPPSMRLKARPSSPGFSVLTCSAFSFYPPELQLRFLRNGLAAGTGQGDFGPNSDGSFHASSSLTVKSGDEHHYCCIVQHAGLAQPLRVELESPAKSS
T2 sequence (P61769 21-119 limits assumed, chain 2 of 2): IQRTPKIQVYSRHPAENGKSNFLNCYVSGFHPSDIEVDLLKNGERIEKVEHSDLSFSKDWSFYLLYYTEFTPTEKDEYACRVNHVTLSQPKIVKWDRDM

[2] = target: T2, 人FcRn(β2M)-His蛋白 (human FcRn-ECD); experiment: blocking ELISA pH 6.0, human IgG-biotin on plate-bound human FcRn-ECD (method of Example 4)
[3] = target: T2, 人FcRn(β2M)-His蛋白 (human FcRn-ECD); experiment: blocking ELISA, human IgG on plate-bound human FcRn-ECD

| Binder | binding result (α2-Fc) | EC50 [1] | IC50 [2] | IC50 [3] |
| --- | --- | --- | --- | --- |
| B1 | binds |  |  |  |
| B2 |  | 0.00973 µg/mL and 0.06 nM | 0.0514 µg/mL and 0.34 nM |  |
| B3 |  | 0.00976 µg/mL and 0.06 nM |  | 0.0122 µg/mL and 0.08 nM |
